The text below walks through data of patent US20230400461A1 (TEKNOLOGIAN TUTKIMUSKESKUS VTT, published 2023).

For test [1], the target named is T1, Staphylococcus aureus Enterotoxin B (Staphylococcus aureus, UniProt P01552 28-266).
T1 sequence: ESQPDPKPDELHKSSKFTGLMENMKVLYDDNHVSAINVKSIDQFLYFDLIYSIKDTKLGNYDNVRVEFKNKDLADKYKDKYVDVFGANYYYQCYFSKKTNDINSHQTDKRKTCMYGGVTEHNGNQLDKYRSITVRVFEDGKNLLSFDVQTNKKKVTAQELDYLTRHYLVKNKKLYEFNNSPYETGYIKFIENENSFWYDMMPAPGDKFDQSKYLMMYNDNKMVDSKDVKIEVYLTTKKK
Briefly: ELISA (screening; results not shown).

Test [2] has as its target T2, Staphylococcus aureus Enterotoxin A (Staphylococcus aureus, UniProt P0A0L2 25-257).
T2 sequence: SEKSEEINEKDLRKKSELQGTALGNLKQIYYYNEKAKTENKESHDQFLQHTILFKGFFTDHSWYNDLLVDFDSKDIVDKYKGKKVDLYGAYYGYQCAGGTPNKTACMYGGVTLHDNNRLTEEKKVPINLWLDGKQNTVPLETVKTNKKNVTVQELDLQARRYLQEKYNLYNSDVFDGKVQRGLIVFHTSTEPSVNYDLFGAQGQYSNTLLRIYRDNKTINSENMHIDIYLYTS

B1: anti-SEA (90) Fab (Fab, V domains shown)
VH: EVQLQQSGPELVKPGASVKMSCKASGYTFTSYVMQWVKQKPGQGLEWIGYINPYNDGTKYNEKFKGKATLTSDKSSSTAYMELSSLTSEDSAVYYCARGDGVGGMDYWGQGTSVTVSS
VL: DIVMTQSPATLSVTPGDRVSLSCRASQSISDYLHWYQQKSHESPRLLIKYASQSISGIPSRFSGSGSGSDFTLSINSVEPEDVGVYYCQNGHSFPPTFGGGTKLEIK
On to B1, for which the binding result in test [1] was “no binding”. Moreover, in test [2], the Kd (in general, the free concentration of one partner at which half of the binding sites on the other are occupied at equilibrium, for simple one-to-one binding) turned out to be 3 nM; the koff (commonly a measure of how fast the partners let go of each other) came out at 0.0013 s⁻¹; the kon (as a rule, the second-order rate constant of association) came out at 420000 M⁻¹ s⁻¹.

B2: anti-SEA (55) Fab (Fab, V domains shown)
VH: QVQLQQSGAELMKPGASVKISCKATGYTISSHWIEWVKQRPGHGLEWIGETLPGSGSTKYNEKFKGKATITADTSSNTAYMQLSSLTSEDSAVYYCARGDGNYGWFAYWGQGTLVTVSA
VL: DIVLTQSPALMAASPGEKVTITCSVSSSISSSNLHWYQQKSETSPKPWIYGTSNLASGVPVRFSGSGSGTSYSLTISSMEAEDAATYYCQQWSSYPLTFGAGTKLELK
On to B2, for which, in test [1], the binding result is recorded as “no binding”. For the same molecule, in test [2], the affinity, expressed as Kd, was 3.6 nM; the koff worked out at 0.00035 s⁻¹; the kon turned out to be 97000 M⁻¹ s⁻¹.
